US20160058880

T1: LGP-Dox
T1 chain: LGP

T2: N-succinyl-beta-alanyl-L-leucyl-L-alanyl-L-leucyl-doxorubicin
T2 chain: ALAL

T3: NH2-Gly-Pro-Doxorubicin
T3 chain: GP

T4: PhAc-ALGP-doxorubicin
T4 chain: ALGP

T5: PhAc-AIGP-doxorubicin
T5 chain: AIGP

T6: PhAc-ALAF-doxorubicin
T6 chain: ALAF

T7: PhAc-ALAL-doxorubicin
T7 chain: ALAL

T8: PhAc-ALPF-doxorubicin
T8 chain: ALPF

T9: PhAc-DLGP-doxorubicin
T9 chain: DLGP

T10: PhAc-GPGP-doxorubicin
T10 chain: GPGP

T11: PhAc-KLGP-doxorubicin
T11 chain: KLGP

T12: PhAc-TSGP-doxorubicin
T12 chain: TSGP

T13: Succinyl-βALPF-doxorubicin
T13 chain: ALPF


Columns and labels:
LGP-Dox = target: T1, LGP-Dox
[1] = target: T2, N-succinyl-beta-alanyl-L-leucyl-L-alanyl …
NH2-Gly-Pro-Doxorubicin = target: T3, NH2-Gly-Pro-Doxorubicin
PhAc-ALGP-doxorubicin = target: T4, PhAc-ALGP-doxorubicin
PhAc-AIGP-doxorubicin = target: T5, PhAc-AIGP-doxorubicin
PhAc-ALAF-doxorubicin = target: T6, PhAc-ALAF-doxorubicin
PhAc-ALAL-doxorubicin = target: T7, PhAc-ALAL-doxorubicin
PhAc-ALPF-doxorubicin = target: T8, PhAc-ALPF-doxorubicin
PhAc-DLGP-doxorubicin = target: T9, PhAc-DLGP-doxorubicin
PhAc-GPGP-doxorubicin = target: T10, PhAc-GPGP-doxorubicin
PhAc-KLGP-doxorubicin = target: T11, PhAc-KLGP-doxorubicin
PhAc-TSGP-doxorubicin = target: T12, PhAc-TSGP-doxorubicin
[2] = target: T13, Succinyl-βALPF-doxorubicin

| Protein | hydrolysis by purified CD26 (LGP-Dox) | hydrolysis by purified CD26 [1] | conversion to Dox after 3 h incubation at 37° C. with purified CD26 (NH2-Gly-Pro-Doxorubicin) | hydrolysis by purified CD26 (PhAc-ALGP-doxorubicin) | cleavage by purified CD10 10 nM (grade) (LGP-Dox) | cleavage by purified CD10 10 nM (grade) [1] | cleavage by purified CD10 10 nM (grade) (PhAc-AIGP-doxorubicin) | cleavage by purified CD10 10 nM (grade) (PhAc-ALAF-doxorubicin) | cleavage by purified CD10 10 nM (grade; * = less than 5% of metabolites detected) (PhAc-ALAL-doxorubicin) | cleavage by purified CD10 10 nM (grade) (PhAc-ALGP-doxorubicin) | cleavage by purified CD10 10 nM (grade) (PhAc-ALPF-doxorubicin) | cleavage by purified CD10 10 nM (grade) (PhAc-DLGP-doxorubicin) | cleavage by purified CD10 10 nM (grade) (PhAc-GPGP-doxorubicin) | cleavage by purified CD10 10 nM (grade; * = less than 5% of metabolites detected) (PhAc-KLGP-doxorubicin) | cleavage by purified CD10 10 nM (grade) (PhAc-TSGP-doxorubicin) | cleavage by purified CD10 10 nM (grade; * = less than 5% of metabolites detected) [2] |
| --- | --- | --- | --- | --- | --- | --- | --- | --- | --- | --- | --- | --- | --- | --- | --- | --- |
| CD26 (protein) SRKTYTLTDYLKNTYRLKLYSLRWISDHEYLYKQENNILVFNAEYGNSSVFLENSTFDEFGHSINDYSISPDGQFILLEYNYVKQWRHSYTASYDIYDLNKRQLITEERIPNNTQWVTWSPVGHKLAYVWNNDIYVKIEPNLPSYRITWTGKEDIIYNGITDWVYEEEVFSAYSALWWSPNGTFLAYAQFNDTEVPLIEYSFYSDESLQYPKTVRVPYPKAGAVNPTVKFFVVNTDSLSSVTNATSIQITAPASMLIGDHYLCDVTWATQERISLQWLRRIQNYSVMDICDYDESSGRWNCLVARQHIEMSTTGWVGRFRPSEPHFTLDGNSFYKIISNEEGYRHICYFQIDKKDCTFITKGTWEVIGIEALTSDYLYYISNEYKGMPGGRNLYKIQLSDYTKVTCLSCELNPERCQYYSVSFSKEAKYYQLRCSGPGLPLYTLHSSVNDKGLRVLEDNSALDKMLQNVQMPSKKLDFIILNETKFWYQMILPPHFDKSKKYPLLLDVYAGPCSQKADTVFRLNWATYLASTENIIVASFDGRGSGYQGDKIMHAINRRLGTFEVEDQIEAARQFSKMGFVDNKRIAIWGWSYGGYVTSMVLGSGSGVFKCGIAVAPVSRWEYYDSVYTERYMGLPTPEDNLDHYRNSTVMSRAENFKQVEYLLIHGTADDNVHFQQSAQISKALVDVGVDFQAMWYTDEDHGIASSTAHQHIYTHMSHFIKQCFSLP | Neither CD26 nor FAP hydrolized either PhAc-ALGP-Dox, Suc-βALAL-Dox or LGP-Dox | Neither CD26 nor FAP hydrolized either PhAc-ALGP-Dox, Suc-βALAL-Dox or LGP-Dox | 97% conversion to Dox after 3 h incubation at 37 °C | Neither CD26 nor FAP hydrolized either PhAc-ALGP-Dox, Suc-βALAL-Dox or LGP-Dox |  |  |  |  |  |  |  |  |  |  |  |  |
| CD10 (recombinant human neprilysin, R&D systems, Ref 1182-ZN) (protein) DDGICKSSDCIKSAARLIQNMDATTEPCTDFFKYACGGWLKRNVIPETSSRYGNFDILRDELEVVLKDVLQEPKTEDIVAVQKAKALYRSCINESAIDSRGGEPLLKLLPDIYGWPVATENWEQKYGASWTAEKAIAQLNSKYGKKVLINLFVGTDDKNSVNHVIHIDQPRLGLPSRDYYECTGIYKEACTAYVDFMISVARLIRQEERLPIDENQLALEMNKVMELEKEIANATAKPEDRNDPMLLYNKMTLAQIQNNFSLEINGKPFSWLNFTNEIMSTVNISITNEEDVVVYAPEYLTKLKPILTKYSARDLQNLMSWRFIMDLVSSLSRTYKESRNAFRKALYGTTSETATWRRCANYVNGNMENAVGRLYVEAAFAGESKHVVEDLIAQIREVFIQTLDDLTWMDAETKKRAEEKALAIKERIGYPDDIVSNDNKLNNEYLELNYKEDEYFENIIQNLKFSQSKQLKKLREKVDKDEWISGAAVVNAFYSSGRNQIVFPAGILQPPFFSAQQSNSLNYGGIGMVIGHEITHGFDDNGRNFNKDGDLVDWWTQQSASNFKEQSQCMVYQYGNFSWDLAGGQHLNGINTLGENIADNGGLGQAYRAYQNYIKKNGEEKLLPGLDLNHKQLFFLNFAQVWCGTYRPEYAVNSIKTDVHSPGNFRIIGTLQNSAEFSEAFHCRKNSYMNPEKKCRVW |  |  |  |  | - | + | + | + | -* | + | - | - | - | -* | - | -* |
